Measured values from paper doi:10.1101/2024.04.26.591336.

Molecular target: NOTCH2^ΔERA-TurboID (human)
Assay: proximity labelling

Log2FC NICD2RA-vs-NICD2: -2.03 Log2FC
percent of the NOTCH2 recovered, NICD2RA against NICD2: 13%
Substance: endogenous human NOTCH2 (from UniProt Q04721 26-2471) (natural protein)
